Assay results as given in the supplement of paper PMC10065799, “High-throughput profiling of sequence recognition by tyrosine kinases and SH2 domains using bacterial peptide display” (eLife, 2023).

Each sequence was assayed against EPHB2 (UniProt P29323) (assay: phosphorylation enrichment, bacterial display (enrichment ratio); higher = better substrate or ligand; peptides without Tyr show the background).
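Throughout, for SH2 binding enrichment of the phosphorylated peptide, bacterial display: peptide library displayed on the E. coli surface as eCPX fusions, selected cells deep-sequenced, score is each peptide's frequency after selection divided by its frequency in the input.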
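Throughout, for phosphorylation enrichment, bacterial display: 11-residue human phosphosite peptides and single-mutation variants displayed on the E. coli surface, counted by deep sequencing, each peptide's frequency after selection divided by its frequency in the unselected input library; frequency after pTyr selection over input frequency; kinase dosed for 20-30% of maximal phosphorylation in three min.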

Chain of EPHB2 (P29323 whole entry, looked up, the tested form may be a part): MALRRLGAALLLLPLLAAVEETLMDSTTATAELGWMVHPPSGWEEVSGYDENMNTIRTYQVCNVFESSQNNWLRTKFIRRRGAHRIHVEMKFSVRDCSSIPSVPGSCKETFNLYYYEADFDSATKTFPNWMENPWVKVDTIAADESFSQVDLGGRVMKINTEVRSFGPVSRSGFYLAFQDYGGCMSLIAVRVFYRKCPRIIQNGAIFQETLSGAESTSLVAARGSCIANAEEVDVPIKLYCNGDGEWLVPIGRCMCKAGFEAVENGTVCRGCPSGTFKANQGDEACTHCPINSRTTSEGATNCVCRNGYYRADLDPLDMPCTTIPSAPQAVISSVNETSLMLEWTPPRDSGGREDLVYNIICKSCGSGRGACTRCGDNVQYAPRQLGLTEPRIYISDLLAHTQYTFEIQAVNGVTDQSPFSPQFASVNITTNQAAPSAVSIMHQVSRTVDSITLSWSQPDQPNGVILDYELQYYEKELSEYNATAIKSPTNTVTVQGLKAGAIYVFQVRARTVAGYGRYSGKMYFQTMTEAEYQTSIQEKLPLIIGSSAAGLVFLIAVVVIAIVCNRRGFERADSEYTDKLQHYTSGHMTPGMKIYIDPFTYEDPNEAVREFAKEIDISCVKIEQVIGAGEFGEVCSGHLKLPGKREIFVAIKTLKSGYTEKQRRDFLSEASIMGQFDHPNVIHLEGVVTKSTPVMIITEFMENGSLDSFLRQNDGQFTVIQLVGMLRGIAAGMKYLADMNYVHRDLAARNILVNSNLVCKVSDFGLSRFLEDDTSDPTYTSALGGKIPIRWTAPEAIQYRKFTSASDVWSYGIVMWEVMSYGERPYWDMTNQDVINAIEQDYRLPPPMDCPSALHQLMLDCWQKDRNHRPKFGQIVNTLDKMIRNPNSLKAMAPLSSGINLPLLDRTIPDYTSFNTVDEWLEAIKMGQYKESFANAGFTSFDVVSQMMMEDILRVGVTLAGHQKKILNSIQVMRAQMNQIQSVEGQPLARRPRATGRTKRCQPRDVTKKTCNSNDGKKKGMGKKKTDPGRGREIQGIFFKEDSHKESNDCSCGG

First: KSEKVYTRHGV [FLOT1_Y56]
Second: KFLVGYEMLAQ [GALT_Y339_M336L]
The phosphorylation enrichment of the first is lower: 0.339 for the first, 0.434 for the second.

First: QWRTKYEMDAI [MYH7_Y1375_T1377M]
Second: GGCQEYTGAPY [NAXD_Y85]
The phosphorylation enrichment of the first is lower: 0.4 for the first, 0.587 for the second.

Compared with CITIHYNFMCN [TP53_Y234_T230I_YF], QLQTTYPSSDN [MAX_Y115_N114T] is lower in phosphorylation enrichment: 0.711 for the first, 0.48 for the second.

Going from FTGDIYSSSNL [LZTR1_Y141_N143S_YF] to QPGDICHQTWA [GBA_Y244_Y244C], the phosphorylation enrichment falls from 1.03 to 0.45.

Compared with VIERSYTSADG [DHCR7_Y382_C380R], KVKGEYDMTVP [AHNAK_Y964] is lower in phosphorylation enrichment: 0.478 for the first, 0.36 for the second.

Going from SVQVEYMKTIL [GLYATL2_Y127_D126E] to EKLQQYLAPGM [EPHB3_Y600_I601L], the phosphorylation enrichment rises from 0.476 to 0.489.

First: DVAKEYGHLLP [HRC_Y99_S96A]
Second: KACNPYKPPGP
The phosphorylation enrichment of the first is higher: 0.512 for the first, 0.478 for the second.

Compared with VFGVSYDEYRY [CFTR_Y512_I507V], NFFEFYVDDPP [GCHFR_Y48_YF] is higher in phosphorylation enrichment: 0.465 for the first, 0.621 for the second.

Going from RQGKDYVGAIP [KDR_Y951] to STASGYSDVTD [DTX2_Y425], the phosphorylation enrichment rises from 0.442 to 0.464.

First: AGQEDCDRLRP [CDC42_Y64_Y64C]
Second: AFPGEYIPTVF [RAC1_Y32]
The phosphorylation enrichment of the first is lower: 0.444 for the first, 0.476 for the second.

First: VGNPAYRSFSN [IL4R_Y497_A492V]
Second: VERRVYAEDPF [PCCA_Y401_C398R_YF]
The phosphorylation enrichment of the first is lower: 0.417 for the first, 0.499 for the second.

Compared with GEIQEYGAPLD [ABCC1_Y1508_S1512L], EFISESCGEII [EZH2_Y641_Y641S] is higher in phosphorylation enrichment: 0.716 for the first, 0.752 for the second.

First: IHADIYRWFNI [MARS1_Y344]
Second: LRYDVYGGENE [STOX1_Y610_E608D]
The phosphorylation enrichment of the first is lower: 0.6 for the first, 1.57 for the second.

Compared with LDLSFYPTSSS [EMD_Y182_YF], YGAHNHHPLPV [OAT_Y55_Y55H] is lower in phosphorylation enrichment: 0.904 for the first, 0.38 for the second.

Going from SSPVPYLSPET [TJP1_Y931] to ADTETYLLEKS [MYH7_Y266_I263T], the phosphorylation enrichment rises from 0.502 to 0.586.

Compared with KFDLMYAKWAF [TUBA3E_Y399], FKELVYETVRV [FSHB_Y76] is higher in phosphorylation enrichment: 0.784 for the first, 9.8 for the second.

TSSAIYMNLAS [GATAD2B_Y317] gave a phosphorylation enrichment of 3.51.

What follows are sequences tested against Grb2 SH2 (UniProt P62993) (assay: SH2 binding enrichment of the phosphorylated peptide, bacterial display (enrichment ratio); higher = better substrate or ligand; peptides without Tyr show the background).
Chain of Grb2 SH2 (P62993 whole entry, looked up): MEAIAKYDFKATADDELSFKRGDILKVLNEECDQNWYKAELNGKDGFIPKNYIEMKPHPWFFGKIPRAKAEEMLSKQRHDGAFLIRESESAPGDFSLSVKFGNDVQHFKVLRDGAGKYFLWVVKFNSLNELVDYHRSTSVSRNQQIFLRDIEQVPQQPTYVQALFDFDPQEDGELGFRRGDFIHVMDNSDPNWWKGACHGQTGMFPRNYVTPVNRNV

Compared with KSEKVYTRHGV [FLOT1_Y56], KFLVGYEMLAQ [GALT_Y339_M336L] is higher in SH2 binding enrichment: 0.866 for the first, 1.01 for the second.

Going from QWRTKYEMDAI [MYH7_Y1375_T1377M] to GGCQEYTGAPY [NAXD_Y85], the SH2 binding enrichment rises from 0.891 to 0.935.

Compared with CITIHYNFMCN [TP53_Y234_T230I_YF], QLQTTYPSSDN [MAX_Y115_N114T] is lower in SH2 binding enrichment: 2.19 for the first, 0.921 for the second.

Going from FTGDIYSSSNL [LZTR1_Y141_N143S_YF] to QPGDICHQTWA [GBA_Y244_Y244C], the SH2 binding enrichment falls from 0.793 to 0.776.

First: VIERSYTSADG [DHCR7_Y382_C380R]
Second: KVKGEYDMTVP [AHNAK_Y964]
The SH2 binding enrichment of the first is higher: 0.852 for the first, 0.756 for the second.

Going from SVQVEYMKTIL [GLYATL2_Y127_D126E] to EKLQQYLAPGM [EPHB3_Y600_I601L], the SH2 binding enrichment rises from 0.712 to 0.745.

First: DVAKEYGHLLP [HRC_Y99_S96A]
Second: KACNPYKPPGP
The SH2 binding enrichment of the first is lower: 0.984 for the first, 1.01 for the second.

Compared with VFGVSYDEYRY [CFTR_Y512_I507V], NFFEFYVDDPP [GCHFR_Y48_YF] is higher in SH2 binding enrichment: 0.781 for the first, 0.978 for the second.

Going from RQGKDYVGAIP [KDR_Y951] to STASGYSDVTD [DTX2_Y425], the SH2 binding enrichment rises from 0.818 to 0.851.

First: AGQEDCDRLRP [CDC42_Y64_Y64C]
Second: AFPGEYIPTVF [RAC1_Y32]
The SH2 binding enrichment of the first is higher: 1.07 for the first, 1.05 for the second.

First: VGNPAYRSFSN [IL4R_Y497_A492V]
Second: VERRVYAEDPF [PCCA_Y401_C398R_YF]
The SH2 binding enrichment of the first is lower: 0.862 for the first, 1 for the second.

First: GEIQEYGAPLD [ABCC1_Y1508_S1512L]
Second: EFISESCGEII [EZH2_Y641_Y641S]
The SH2 binding enrichment of the first is lower: 0.822 for the first, 1 for the second.

First: IHADIYRWFNI [MARS1_Y344]
Second: LRYDVYGGENE [STOX1_Y610_E608D]
The SH2 binding enrichment of the first is higher: 1.65 for the first, 0.925 for the second.

Going from LDLSFYPTSSS [EMD_Y182_YF] to YGAHNHHPLPV [OAT_Y55_Y55H], the SH2 binding enrichment rises from 0.698 to 0.963.

First: SSPVPYLSPET [TJP1_Y931]
Second: ADTETYLLEKS [MYH7_Y266_I263T]
The SH2 binding enrichment of the first is lower: 0.851 for the first, 0.859 for the second.

Going from KFDLMYAKWAF [TUBA3E_Y399] to FKELVYETVRV [FSHB_Y76], the SH2 binding enrichment falls from 1.24 to 0.751.

Work on TSSAIYMNLAS [GATAD2B_Y317] yielded an SH2 binding enrichment of 4.48.
